Two molecules from paper PMC8079448, “Structure of the SWI/SNF complex bound to the nucleosome and insights into the functional modularity” (Cell Discovery, 2021) can be followed below.

In the assay the target is T1, Snf5 (wild type, subunit of the recombinant SWI/SNF complex) (yeast, UniProt P18480 1-905).
T1 construct: Snf5, yeast, wild type; also called WT; source: overexpressed in E. coli (modified EcoExpress system), in the reconstituted complex
Kind of assay: cryo-EM structure; recombinant yeast SWI/SNF complex in complex with the mononucleosome; overall resolution 6.9 Å, local 3.1 Å at the nucleosome bound with the FH of Snf5, local 3.6 Å at the SRM. As to conditions: both partners purified.

T1 sequence (P18480 whole entry, one chain of several): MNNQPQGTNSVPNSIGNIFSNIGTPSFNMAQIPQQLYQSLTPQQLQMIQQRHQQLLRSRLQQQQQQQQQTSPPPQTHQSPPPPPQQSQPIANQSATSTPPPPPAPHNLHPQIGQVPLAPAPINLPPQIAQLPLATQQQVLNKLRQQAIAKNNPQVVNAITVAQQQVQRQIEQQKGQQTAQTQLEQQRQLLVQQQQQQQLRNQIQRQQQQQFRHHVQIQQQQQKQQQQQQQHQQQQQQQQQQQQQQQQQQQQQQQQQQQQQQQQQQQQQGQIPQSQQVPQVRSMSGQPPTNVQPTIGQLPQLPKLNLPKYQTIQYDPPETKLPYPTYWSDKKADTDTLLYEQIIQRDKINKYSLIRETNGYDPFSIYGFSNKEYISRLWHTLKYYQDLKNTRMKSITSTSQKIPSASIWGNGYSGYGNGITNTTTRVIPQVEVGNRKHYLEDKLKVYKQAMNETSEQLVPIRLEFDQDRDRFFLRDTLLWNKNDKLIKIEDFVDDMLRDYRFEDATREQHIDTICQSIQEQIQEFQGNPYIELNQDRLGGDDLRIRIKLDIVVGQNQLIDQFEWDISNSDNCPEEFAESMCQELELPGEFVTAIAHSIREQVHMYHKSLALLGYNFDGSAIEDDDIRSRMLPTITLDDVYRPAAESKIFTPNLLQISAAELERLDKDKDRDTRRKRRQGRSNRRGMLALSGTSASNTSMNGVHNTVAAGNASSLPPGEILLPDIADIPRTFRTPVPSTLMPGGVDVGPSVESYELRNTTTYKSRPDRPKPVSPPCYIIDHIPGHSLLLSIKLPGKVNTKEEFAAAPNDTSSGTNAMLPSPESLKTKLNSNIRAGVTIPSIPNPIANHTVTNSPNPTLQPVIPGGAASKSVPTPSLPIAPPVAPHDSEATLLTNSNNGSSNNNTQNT

B1: Swi3 (natural protein, yeast)
chain: MENTLGEGSTVNASVDVDQHGNDNNSDSNANAAVAGVANTDTAGEESQQQDESLKDEATVPNTRDAESEAITVTAKQQPTMQANKLDSQETPSTEESRAQNVFGQDNEDSDNLFGETESSVSNNEANTPSIPTNPVDNENNKPAIKEDSTIQDSNGDVKNMEDVKIQKEEEPENNTVIEGVKEESQPDENTKEMDEVEEDDEDDDQPMISPDNSIFGDTKSESKQLGNTSSVANTPSEIPDAHKAEQEDIIEKTESVDKKVDSGEERNEQEREIMNDHSKSANPKKTTITRVEPETFEIPQAHEIVIPSYSKWFNLEKIHSIEVQSLPEFFTNRIPSKTPEVYMRYRNFMVNSYRLNPNEYFSVTTARRNVSGDAAALFRLHKFLTKWGLINYQVDSKLLPKNIEPPLTSQYSTRHDAPRGLFPFESYKPSVQLPDMAKLKKMMNTSDSESTLYKYLKESKRKYDEITHPPSTTDDENGDKNDNGGKMNNEVSTSTSMTGDANLLEEGETSRPLKKVKILEQIDENWSKEDLQKLLKGIQEFGADWYKVAKNVGNKSPEQCILRFLQLPIEDKFLYGDGNGKGDNDNGLGPLKYAPHLPFSKSENPVLSTIAFLVGLVNPKTVQSMTQRAIQSAESIKSQKEEISDQKPIEHIKEGSEIAISSLGYRSHIFATNEERQMNFLTNELIRLQMEKLDAKLNHLKKLEKFMELERKTLERQQENLLIQRLNFNQNSSKIVNVLSKCLNLISDSNINNSSVAEKEEIRSQIDHFKSMLSKPETLSIGKNPFNKPNIETGENHNGQSISNENDVKPISIEAPQFYRYWSA
notes: Swi3, yeast; source: overexpressed in E. coli (modified EcoExpress system), in the reconstituted complex
For B1, the binding result is on record as “binds”.

B2: Swp82 (natural protein, yeast)
chain: MLGEDEGNTVLEKGNNPSVKQGEVGAVFIVPKILIREHERVILKQILQILDQDELVQPPLDKFPYKKLELPKYIDELKTRDATNTSYKMIQLDAYGEKKVGSNGELFGGRHYLFNTFTFTAHMGVLLVLLQDVIKVLYQSNATHDEDEFIVQHDQILVMETSEEQTKFLAKNGVIPEESKGSFKYITARSAFVEFGASVIAGGQRIVDDYWESLAKKQNLSSHQRVFKLSTNLISKISLLRPSFQNNRISNANEISANTNNTCTISTSKFESQYPIVTEQPSAEIREAYIENFAKGEHISAIVPGQSISGTLELSAQFRVPRYHSKNSFQQALQMKAMDIPIGRHEELLAQYESQAPDGSASISLPNHIPSVNPSNKPIKRMLSSILDINVSSSKNKKSEENEMIKPMNKGQHKNNTSLNINGWKFESLPLKSAENSGKQQYYRGLPLYEKNTLLERLKQLTPNEIKELEHLHDAVFVNTGLQNVRKVRTKKWKKYWQYKAGIPIGLKRSQLDEFKNKYLKDVLAQTSVTTNFNEITNTDETITTKRVPNPNFLGNCNIKDFKPPYIYSHVNKVPQNVAGDKTAVKLDTEVKNTNANPVVATDPVAAKPDNLANFSNEVAMNN
notes: Swp82, yeast; source: overexpressed in E. coli (modified EcoExpress system), in the reconstituted complex
As to B2, the binding result was “binds”.
